Source: paper PMC6652007, “Metabolic engineering of Clostridium thermocellum for n-butanol production from cellulose” (Biotechnology for Biofuels, 2019)

B1: Tt_Thl (Thermoanaerobacterium thermosaccharolyticum DSM 571) (protein)
chain: MKEVVIASGVRTAVGKFGGTLLNVPAVDLGAVVIKEALKRANVKPEDVSEVIMGNVLQAGLGQNPARQAEIKAGIPVEVPAMTVNMVCGSGLRAVTLAAQAVMLGDADIVVAGGMENMSRAPYILNDARFGYRMNNGQLVDEMVYDGLTDVFNQYHMGITAENLAEKYGISREEQDEFAYRSQKLASEAISSGRFEDEIVPVIVPQKKGEPIEFKVDEHVRPNTTIEALAKLKPAFKKDGTVTAGNASGINDAAAAVVVMSKEKADELGIKPLATIKSFGYAGVDPSIMGIGPVYATRKALEKANLTVDDLDLIEANEAFAAQSLAVAKELKFNMDRVNVNGGAIAIGHPIGASGCRILVTLLYEMQKRNSHTGLATLCIGGGMGIAMVVER
notes: His-tagged (vector pD861-CH), codon-optimised, expressed in E. coli BL21(DE3)
B2: St_Ter (Winmispira thermophila DSM 6578) (protein)
chain: MVIKPMIRNNICMNAHPEGCRLFVDRQIDYVRQRGPLSSGPKNVLVVGSSGGYGLATRIAAGFGAGAATIGVYFEKEPSEKRTGTPGWYAARHFLKRAEAAGLKVHDINGDAFSFEVKAQVVDLIKKEYGTIDLFVYSLASGVRTDPVSGVTYRSALKPIGRTYTSKALDPLKREVVQAAIEPASEEEIEATVKVMGGEDWQLWVEALKEGGVLAEGAVTVAYSYIGPELTRPIYREGTIGKAKEHLEATAKTLDEALASVGGKAYVSVNKAVVTRASAVIPAVPLYLSILFTVMKAKGIHEGCIEQMYRMLAERLYAGGPVPVDDEGRIRMDDWEMREDVQREVAEVWERITTETLDTEADVDGYLTDFLNLHGFGFKEIDYEKEVDPREG
notes: as for B1
B3: Tt_Thl (Thermoanaerobacterium thermosaccharolyticum DSM 571; N153Y/S287K/V77Q) (protein)
chain: MKEVVIASGVRTAVGKFGGTLLNVPAVDLGAVVIKEALKRANVKPEDVSEVIMGNVLQAGLGQNPARQAEIKAGIPQEVPAMTVNMVCGSGLRAVTLAAQAVMLGDADIVVAGGMENMSRAPYILNDARFGYRMNNGQLVDEMVYDGLTDVFYQYHMGITAENLAEKYGISREEQDEFAYRSQKLASEAISSGRFEDEIVPVIVPQKKGEPIEFKVDEHVRPNTTIEALAKLKPAFKKDGTVTAGNASGINDAAAAVVVMSKEKADELGIKPLATIKSFGYAGVDPKIMGIGPVYATRKALEKANLTVDDLDLIEANEAFAAQSLAVAKELKFNMDRVNVNGGAIAIGHPIGASGCRILVTLLYEMQKRNSHTGLATLCIGGGMGIAMVVER
notes: as for B1
B4: Tt_Thl (Thermoanaerobacterium thermosaccharolyticum DSM 571; H156N/N223V/P222F/R133G) (protein)
chain: MKEVVIASGVRTAVGKFGGTLLNVPAVDLGAVVIKEALKRANVKPEDVSEVIMGNVLQAGLGQNPARQAEIKAGIPVEVPAMTVNMVCGSGLRAVTLAAQAVMLGDADIVVAGGMENMSRAPYILNDARFGYGMNNGQLVDEMVYDGLTDVFNQYNMGITAENLAEKYGISREEQDEFAYRSQKLASEAISSGRFEDEIVPVIVPQKKGEPIEFKVDEHVRFVTTIEALAKLKPAFKKDGTVTAGNASGINDAAAAVVVMSKEKADELGIKPLATIKSFGYAGVDPSIMGIGPVYATRKALEKANLTVDDLDLIEANEAFAAQSLAVAKELKFNMDRVNVNGGAIAIGHPIGASGCRILVTLLYEMQKRNSHTGLATLCIGGGMGIAMVVER
notes: as for B1
B5: St_Ter (Winmispira thermophila DSM 6578; E75A) (protein)
chain: MVIKPMIRNNICMNAHPEGCRLFVDRQIDYVRQRGPLSSGPKNVLVVGSSGGYGLATRIAAGFGAGAATIGVYFAKEPSEKRTGTPGWYAARHFLKRAEAAGLKVHDINGDAFSFEVKAQVVDLIKKEYGTIDLFVYSLASGVRTDPVSGVTYRSALKPIGRTYTSKALDPLKREVVQAAIEPASEEEIEATVKVMGGEDWQLWVEALKEGGVLAEGAVTVAYSYIGPELTRPIYREGTIGKAKEHLEATAKTLDEALASVGGKAYVSVNKAVVTRASAVIPAVPLYLSILFTVMKAKGIHEGCIEQMYRMLAERLYAGGPVPVDDEGRIRMDDWEMREDVQREVAEVWERITTETLDTEADVDGYLTDFLNLHGFGFKEIDYEKEVDPREG
notes: as for B1

Tests used:
coupled Hbd assay, A340 = substrate: CC(=O)SCCNC(=O)CCNC(=O)[C@H](O)C(C)(C)COP(=O)(O)OP(=O)(O)OC[C@H]1O[C@@H](n2cnc3c(N)ncnc32)[C@H](O)[C@@H]1OP(=O)(O)O; assay: coupled Hbd assay, A340; assay type: biochemical, Thermoanaerobacterium thermosaccharolyticum; details: coupled with Hbd, 100 mM MOPS-KOH pH 7.5, 55 °C
Excerpt: coupled Hbd assay, A340 on Tt_Thl

NAD(P)H oxidation, A340 [1] = substrate: NC(=O)C1=CN([C@@H]2O[C@H](COP(=O)(O)OP(=O)(O)OC[C@H]3O[C@@H](n4cnc5c(N)ncnc54)[C@H](OP(=O)(O)O)[C@@H]3O)[C@@H](O)[C@H]2O)C=CC1; assay: NAD(P)H oxidation, A340; assay type: biochemical, Winmispira thermophila; details: crotonyl-CoA as substrate, 100 mM MOPS-KOH pH 7.5, 55 °C, varied: cofactor
Excerpt: (§1) NAD(P)H oxidation, A340 on St_Ter

NAD(P)H oxidation, A340 [2] = substrate: NC(=O)C1=CN([C@@H]2O[C@H](COP(=O)(O)OP(=O)(O)OC[C@H]3O[C@@H](n4cnc5c(N)ncnc54)[C@H](O)[C@@H]3O)[C@@H](O)[C@H]2O)C=CC1; assay: NAD(P)H oxidation, A340; assay type: biochemical, Winmispira thermophila; details: crotonyl-CoA as substrate, 100 mM MOPS-KOH pH 7.5, 55 °C, varied: cofactor
Excerpt: as §1

NADH oxidation, A340 = substrate: C/C=C/C(=O)SCCNC(=O)CCNC(=O)[C@H](O)C(C)(C)COP(=O)(O)OP(=O)(O)OC[C@H]1O[C@@H](n2cnc3c(N)ncnc32)[C@H](O)[C@@H]1OP(=O)(O)O; assay: NADH oxidation, A340; assay type: biochemical, Winmispira thermophila; details: 0.3 mM NADH, 100 mM MOPS-KOH pH 7.5, 55 °C
Excerpt: NADH oxidation, A340 on St_Ter

Protein | Km (NAD(P)H oxidation, A340 [1]) | Vmax (NAD(P)H oxidation, A340 [1]) | Km (NAD(P)H oxidation, A340 [2]) | Vmax (NAD(P)H oxidation, A340 [2]) | further results
B1 |  |  |  |  | Km (coupled Hbd assay, A340; 0.3 mM NADH): 2400 ± 580 µM
B2 | 400 ± 100 µM | 12.2 µmol/min/mg | 30 ± 10 µM | 18.2 µmol/min/mg | Km (NADH oxidation, A340): 30 ± 10 µM
B3 |  |  |  |  | Km (coupled Hbd assay, A340; variant M1, NADH): 3300 ± 700 µM; Vmax (coupled Hbd assay, A340; variant M1, NADH): 15.3 µmol/min/mg
B4 |  |  |  |  | Km (coupled Hbd assay, A340; variant M2, NADH): 2600 ± 500 µM; Vmax (coupled Hbd assay, A340; variant M2, NADH): 45.2 µmol/min/mg
B5 | 20 ± 10 µM | 68.1 µmol/min/mg | 600 ± 100 µM | 10.3 µmol/min/mg | 
